Test results as given in publication PMC4059961, “The transcriptional network of WRKY53 in cereals links oxidative responses to biotic and abiotic stress inputs”.

Biological target: SUMO::TaWRKY53 (Triticum aestivum L. cv. Gamtoos-R)
Experiment: EMSA; Probe EMSA: 10 mM Tris, 50 mM KCl, 1 mM DTT, pH 7.5, 20 min, room temperature; 1-kb EMSA: 10 mM Tris, 100 mM KCl, 1 mM EDTA, 0.1 mM DTT, 5% glycerol, 0.01 mg/mL BSA, pH 7.5, room temperature
Details: protein: recombinant; tags: N-terminal 6xHis-SUMO; label: biotin; blunt

Chain of SUMO::TaWRKY53 (Triticum aestivum L. cv. Gamtoos-R) (chain, as listed by the source): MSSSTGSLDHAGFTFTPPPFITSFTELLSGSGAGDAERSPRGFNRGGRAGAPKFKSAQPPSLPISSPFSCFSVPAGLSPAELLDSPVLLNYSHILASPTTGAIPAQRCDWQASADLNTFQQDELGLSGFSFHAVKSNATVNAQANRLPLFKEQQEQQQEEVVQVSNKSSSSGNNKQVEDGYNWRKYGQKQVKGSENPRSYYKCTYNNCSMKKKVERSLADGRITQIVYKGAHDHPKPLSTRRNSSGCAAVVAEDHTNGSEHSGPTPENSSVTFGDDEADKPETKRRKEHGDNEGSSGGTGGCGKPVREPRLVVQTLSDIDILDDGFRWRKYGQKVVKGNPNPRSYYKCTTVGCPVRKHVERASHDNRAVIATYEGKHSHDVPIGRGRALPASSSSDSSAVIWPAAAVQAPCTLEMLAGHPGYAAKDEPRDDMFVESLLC

Binder	binding result
ORK10 promoter probe (dsDNA) DNA 1: ATCTGGTCAACAATGTATTACACACTGCTTTGACTACTTCCCCCAAAAAAGTACACACTGCTTTGACTCAGGTCAAACTT DNA 2: AAGTTTGACCTGAGTCAAAGCAGTGTGTACTTTTTTGGGGGAAGTAGTCAAAGCAGTGTGTAATACATTGTTGACCAGAT	binds
POC1 promoter probe (dsDNA) DNA 1: ACGTAAATTTTTTGAATAAGACAAATGGTCAAACATGTAAGAAAAGAAAGTCAACGGCGTCATCTATTTAAAAAACGGAT DNA 2: ATCCGTTTTTTAAATAGATGACGCCGTTGACTTTCTTTTCTTACATGTTTGACCATTTGTCTTATTCAAAAAATTTACGT	binds
